Results from publication doi:10.1101/2022.04.11.487882.

Molecular target: receptor-binding domain (RBD) of the SARS-CoV-2 spike (S) protein S1 region, His-tagged (SARS-CoV-2) (UniProt P0DTC2)
Experiment: SPR

recombinant human integrin αvβ6 (from UniProt P06756 31-1048; P18564 22-709) (complex)
Kd: 0.23 µM
koff: 0.0236 s⁻¹
kon: 84000 M⁻¹ s⁻¹

recombinant human integrin αvβ3 (from UniProt P06756 31-1048; P05106 27-718) (complex)
Kd: > 0.5 µM
